From patent US20220298260A1 (MYTHIC THERAPEUTICS, published 2022)
Numbering of substitutions follows the chain as printed.

B1: MYT4501 (antibody, V domains shown)
VH: EVQLVESGGGLVQPGGSLRLSCAASGFNIRTQSIHWVRQAPGKGLEWIGDIFPIDGITDYADSVKGRFTISADTSKNTAYLQMNSLRAEDTAVYYCARGSWSWPSGMDYYLDYWGQGTLVTVSS
VL: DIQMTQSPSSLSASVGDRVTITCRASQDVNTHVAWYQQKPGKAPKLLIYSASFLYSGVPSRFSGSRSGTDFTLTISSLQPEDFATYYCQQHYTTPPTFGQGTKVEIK
notes: IgG
B2: MYT4503 (antibody, V domains shown)
VH: B1 VH
VL: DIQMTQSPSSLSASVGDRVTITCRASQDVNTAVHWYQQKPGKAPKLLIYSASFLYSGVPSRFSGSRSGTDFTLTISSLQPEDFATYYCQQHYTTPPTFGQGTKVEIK
notes: IgG
B3: MYT2194 (antibody, V domains shown)
VH: EVQLVESGGGVVQPGRSLRLSCSASGFTFSGYGLHWVRQAPGKGLEWVAMISSGGSYTYYADSVKGRFAISRDNAKNTLFLQMDSLRPEDTGVYFCARHGDDPAWFAYWGQGTPVTVSS
VL: DIQLTQSPSSLSASVGDRVTITCSVSSSISSNNLHWYQQKPGKAPKPWIYGTSNLASGVPSRFSGSGSGTDYTFTISSLQPEDIATYYCQQWSSYPYMYTFGQGTKVEIK
notes: IgG
B4: MYT2196 (antibody, V domains shown)
VH: B3 VH with H35S, I51H
VL: B3 VL
notes: IgG
B5: MYT2221 (antibody, V domains shown)
VH: B3 VH with H35S, F106H
VL: B3 VL
notes: IgG
B6: MYT2215 (antibody, V domains shown)
VH: B3 VH with H35S, G100H
VL: B3 VL
notes: IgG
B7: MYT2217 (antibody, V domains shown)
VH: B3 VH with H35S, D102H
VL: B3 VL
notes: IgG
B8: MYT2195 (antibody, V domains shown)
VH: B3 VH with H35S, M50H
VL: B3 VL
notes: IgG
B9: MYT2219 (antibody, V domains shown)
VH: B3 VH with H35S, A104H
VL: B3 VL
notes: IgG
B10: mirvetuximab (antibody, V domains shown)
VH: QVQLVQSGAEVVKPGASVKISCKASGYTFTGYFMNWVKQSPGQSLEWIGRIHPYDGDTFYNQKFQGKATLTVDKSSNTAHMELLSLTSEDFAVYYCTRYDGSRAMDYWGQGTTVTVSS
VL: DIVLTQSPLSLAVSLGQPAIISCKASQSVSFAGTSLMHWYHQKPGQQPRLLIYRASNLEAGVPDRFSGSGSKTDFTLTISPVEAEDAATYYCQQSREYPYTFGGGTKLEIK
notes: IgG expressed in Expi293; the entries are labelled heavy/light chain of the IgG but hold only the variable domains; also called MYT0596
B11: MYT1154 (antibody, V domains shown)
VH: B10 VH with A24H, Y27H, F59H
VL: B10 VL
notes: IgG
B12: MYT0603 (antibody, V domains shown)
VH: B10 VH with F29H
VL: B10 VL
notes: IgG

What follows are binders tested against T1, FOLR1 (R&D Systems, Cat #5646-FR) (human, UniProt P15328 25-233) (assay: BLI, IgG on anti-human Fc sensor).
T1 construct: Bought soluble protein; also called Folate Receptor 1
T1 sequence (P15328 25-233 limits assumed): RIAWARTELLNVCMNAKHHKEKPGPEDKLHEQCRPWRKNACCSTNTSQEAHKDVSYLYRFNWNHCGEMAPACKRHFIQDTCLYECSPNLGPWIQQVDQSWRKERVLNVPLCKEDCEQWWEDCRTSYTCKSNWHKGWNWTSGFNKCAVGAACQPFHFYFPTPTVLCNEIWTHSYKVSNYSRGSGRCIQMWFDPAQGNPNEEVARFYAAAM

Question: Does B1 bind?
Answer: Result: no binding (tested: 50 nM)

Question: Does B2 bind?
Answer: Result: no binding (tested: 50 nM)

Question: Does B3 bind?
Answer: Result: no binding (tested: 50 nM)

Question: Does B4 bind?
Answer: Result: no binding (tested: 50 nM)

Question: Does B5 bind?
Answer: Result: no binding (tested: 50 nM)

Question: Does B6 bind?
Answer: Result: no binding (tested: 50 nM)

Question: Does B7 bind?
Answer: Result: no binding (tested: 50 nM)

Question: Does B8 bind?
Answer: Result: no binding (tested: 50 nM)

Question: Does B9 bind?
Answer: Result: no binding (tested: 50 nM)

These binders were tested against T2, FOLR1 on NIH:OVCAR-3 cells (human, UniProt P15328 25-233) (assay: flow cytometry on NIH:OVCAR-3 cells, Alexa Fluor 488 anti-human IgG).
T2 construct: Endogenous FOLR1 of NIH:OVCAR-3 (FOLR1+) cells; also called cell surface FOLR1
T2 sequence (P15328 25-233): as the sequence (P15328 25-233 limits assumed) above
Description: Binding affinity of selected anti-FOLR1 pH engineered antibody variants from Examples 9 and 11 were measured on NIH:OVCAR-3 cells. 100,000 cells per well were resuspended in […] FC buffer in a 96 well deep well plate. Mirvetuximab and pH engineered antibody variants were serially diluted at a 1:3 dilution. 100 µL of diluted antibody was added to each well with final concentration ranging from ˜100 nM to 0.024 pM and incubated for 2 hours at 4° C. Post incubation, the cells were spun at 2000 rpm for 2 min and supernatant was discarded. Cells were washed twice with 500 μL of ice-cold FC buffer and resuspended with 100 μL of FC buffer. The cells were then transferred from the deep well plate to 96 well round bottom plate, spun at 2000 rpm for 2 min and incubated with 100 μL of 10 μg/mL Alexa Fluor 488 conjugated goat anti-human IgG secondary antibody (ThermoFisher Scientific, A11013) for 30 min. Post incubation, cells were washed with FC buffer and resuspended in 100 μL, of FC buffer to read on a BD Accuri C6 flow cytometer. […] MYT0603 and MYT1154 show high affinity binding to cell surface FOLR1 on NIH:OVCAR-3 cells in the pM-nM range confirming that variants created through pH engineering can retain functionally appropriate affinities as compared to their corresponding starting ABPCs (e.g., mirvetuximab).

Question: With B10 as the binder, how does the IC50 read?
Answer: The IC50 was 250 pM.

Question: For B11, which IC50 is on record?
Answer: The IC50 was 396 pM.

Question: For B12, which IC50 is on record?
Answer: Its IC50 is 650 pM.
